Patent publication US20120309939A1 (Scripps Research, published 2012)

Biological target: T1, human VEGF-R2(KDR):Fc fusion protein (R&D Systems) (human, UniProt P35968 20-764)
T1 construct: Bought reagent, coated on Maxisorp plates; also called VEGF receptor; human VEGF receptor; not shown: Fc part of the bought fusion
Assay: ELISA on plates coated with VEGF-R2(KDR):Fc; bound VEGF detected with biotinylated anti-VEGF

T1 sequence (P35968 20-764 limits assumed): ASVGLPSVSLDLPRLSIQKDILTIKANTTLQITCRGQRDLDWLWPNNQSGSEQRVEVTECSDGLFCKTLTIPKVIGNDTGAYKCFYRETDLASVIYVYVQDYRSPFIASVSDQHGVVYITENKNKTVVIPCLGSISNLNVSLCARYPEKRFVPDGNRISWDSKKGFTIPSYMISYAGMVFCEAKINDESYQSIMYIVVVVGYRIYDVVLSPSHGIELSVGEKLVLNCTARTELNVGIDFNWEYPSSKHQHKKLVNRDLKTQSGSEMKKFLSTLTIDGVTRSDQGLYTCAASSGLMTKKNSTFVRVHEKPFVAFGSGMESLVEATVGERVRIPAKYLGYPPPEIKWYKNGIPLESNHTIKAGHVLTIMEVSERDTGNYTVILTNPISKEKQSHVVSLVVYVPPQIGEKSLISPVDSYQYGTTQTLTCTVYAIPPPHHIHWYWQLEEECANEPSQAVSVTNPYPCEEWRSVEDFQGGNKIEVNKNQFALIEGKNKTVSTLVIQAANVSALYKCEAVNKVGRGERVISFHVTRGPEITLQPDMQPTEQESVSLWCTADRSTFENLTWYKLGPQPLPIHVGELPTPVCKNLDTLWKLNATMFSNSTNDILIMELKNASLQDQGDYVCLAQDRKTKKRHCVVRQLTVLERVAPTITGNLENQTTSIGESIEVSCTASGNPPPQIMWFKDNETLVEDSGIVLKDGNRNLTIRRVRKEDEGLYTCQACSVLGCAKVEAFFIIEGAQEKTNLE

B1: algal-expressed human vascular endothelial growth factor (VEGF) isoform 121, without signal peptide, with C-terminal FLAG-tag, made in the C. reinhardtii … (ligand)
chain: MVPAPMAEGGGQNHHEVVKFMDVYQRSYCHPIETLVDIFQEYPDEIEYIFKPSCVPLMRCGGCCNDEGLECVPTEESNITMQIMRIKPHQGQHIGEMSFLQHNKCECRPKKDRARQENCDKPRRGTGENLYFQGSGGGGSDYKDDDDKGTG
notes: Native VEGF is active as a dimer; also called algal VEGF; algae-derived VEGF
B1: binds.
